Data as given in US20240343824A1 (MERUS N V, published 2024).

Tests used:
[1] = target: human ZNRF3(ECD) on Freestyle 293F cells (human); assay: FACS on a mix of DiD-labelled ZNRF3 over-expressing and unlabelled parental 293F Freestyle cells, secondary reagents (anti-M13 and Strep-PE) only; Q3 0,120% [continued]
[2] = target: T1, full length human LGR5-FLAG-HA on Freestyle 293F or CHO-K1 cells (human, UniProt O75473 22-907); assay: competition FACS on CHO-K1 cells over-expressing human LGR5; competitor PG7711p02 (OMP88R20 copy) fixed at 50 ng/ml, detected with anti-human IgG PE; MFI normalised to no R-spondin1
T1 construct: also called hLGR5; hLGR5(FL)
T1 sequence: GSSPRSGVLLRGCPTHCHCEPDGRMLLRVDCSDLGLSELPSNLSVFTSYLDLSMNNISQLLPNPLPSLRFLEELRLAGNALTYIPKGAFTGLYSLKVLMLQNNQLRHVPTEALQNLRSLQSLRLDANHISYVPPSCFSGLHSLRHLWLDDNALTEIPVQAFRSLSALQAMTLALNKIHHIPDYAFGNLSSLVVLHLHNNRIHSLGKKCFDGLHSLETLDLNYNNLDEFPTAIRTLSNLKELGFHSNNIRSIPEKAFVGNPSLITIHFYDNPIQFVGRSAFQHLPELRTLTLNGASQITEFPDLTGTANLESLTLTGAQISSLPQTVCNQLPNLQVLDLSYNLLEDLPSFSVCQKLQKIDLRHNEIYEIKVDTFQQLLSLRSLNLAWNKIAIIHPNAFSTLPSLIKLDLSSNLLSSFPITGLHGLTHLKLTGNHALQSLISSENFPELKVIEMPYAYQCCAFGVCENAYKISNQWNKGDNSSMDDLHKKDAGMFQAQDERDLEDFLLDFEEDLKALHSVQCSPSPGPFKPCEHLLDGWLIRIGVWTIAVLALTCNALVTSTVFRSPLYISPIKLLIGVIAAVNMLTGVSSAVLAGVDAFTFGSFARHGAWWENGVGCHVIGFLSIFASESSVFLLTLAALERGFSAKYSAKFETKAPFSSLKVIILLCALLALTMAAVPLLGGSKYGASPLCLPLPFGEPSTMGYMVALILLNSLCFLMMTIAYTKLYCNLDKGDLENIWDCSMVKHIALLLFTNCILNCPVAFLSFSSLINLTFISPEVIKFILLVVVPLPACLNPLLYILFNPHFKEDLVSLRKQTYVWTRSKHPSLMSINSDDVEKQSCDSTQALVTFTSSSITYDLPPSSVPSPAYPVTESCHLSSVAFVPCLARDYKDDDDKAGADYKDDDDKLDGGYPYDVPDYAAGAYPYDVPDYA

[3] = target: T2, recombinant human LGR5-Fc (human, UniProt O75473 22-561); assay: R-Spondin3 blocking ELISA: 0,031 µg/ml rhLGR5-Fc on 2 µg/ml coated rhR-Spondin3, competitor 15 µg/ml soluble R-Spondin3, detection anti-Fc, OD450 normalised to maximum binding
T2 construct: extracellular domain; also called rhLGR5-Fc (RND systems Cat. Nr. 8078-GP); not shown: Fc part of the bought fusion protein
T2 sequence (looked up): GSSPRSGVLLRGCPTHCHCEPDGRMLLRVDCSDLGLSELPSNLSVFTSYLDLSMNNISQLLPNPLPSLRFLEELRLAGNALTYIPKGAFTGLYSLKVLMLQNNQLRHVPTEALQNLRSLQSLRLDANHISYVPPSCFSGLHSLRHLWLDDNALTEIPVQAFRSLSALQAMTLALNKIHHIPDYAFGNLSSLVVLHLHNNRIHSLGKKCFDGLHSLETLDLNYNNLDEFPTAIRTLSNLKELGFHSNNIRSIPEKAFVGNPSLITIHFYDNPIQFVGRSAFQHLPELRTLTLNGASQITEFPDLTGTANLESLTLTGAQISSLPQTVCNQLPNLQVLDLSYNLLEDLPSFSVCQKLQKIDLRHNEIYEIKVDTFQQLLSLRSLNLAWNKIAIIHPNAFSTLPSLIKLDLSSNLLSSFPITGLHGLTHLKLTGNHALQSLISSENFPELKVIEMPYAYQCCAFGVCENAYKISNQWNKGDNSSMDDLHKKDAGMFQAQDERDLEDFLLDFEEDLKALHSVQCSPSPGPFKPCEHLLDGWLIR

human ZNRF3(ECD) on Freestyle 293F cells (human), sequence (chain, as listed by the source): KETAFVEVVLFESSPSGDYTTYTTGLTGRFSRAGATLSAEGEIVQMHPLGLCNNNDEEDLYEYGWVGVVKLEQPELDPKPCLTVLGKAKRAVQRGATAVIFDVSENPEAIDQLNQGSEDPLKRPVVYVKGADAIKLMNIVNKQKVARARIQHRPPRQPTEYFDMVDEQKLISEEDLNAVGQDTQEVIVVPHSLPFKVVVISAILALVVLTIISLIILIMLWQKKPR

Molecule -Control has a % of events in Q2 (DiD-positive and PE-positive) [1] of 0.18%.

B1: R-spondin1 (ligand, UniProt Q2MKA7 21-263, looked up)
chain: SRGIKGKRQRRISAEGSQACAKGCELCSEVNGCLKCSPKLFILLERNDIRQVGVCLPSCPPGYFDARNPDMNKCIKCKIEHCEACFSHNFCTKCKEGLYLHKGRCYPACPEGSSAANGTMECSSPAQCEMSEWSPWGPCSKKQQLCGFRRGSEERTRRVLHAPVGDHAACSDTKETRRCTVRRVPCPEGQKRRKGGQGRRENANRNLARKESKEAGAGSRRRKGQQQQQQQGTVGPLTSAGPA
notes: also called RSPO1; R-spondin1 (R&D Systems, cat. nr. 4645-RF/CF)
B1 was tested, and the “IC50 (read off the curve)” value [2] was ~10 nM.

B2: recombinant human R-Spondin3 (ligand, UniProt Q9BXY4 22-272, looked up)
chain: QNASRGRRQRRMHPNVSQGCQGGCATCSDYNGCLSCKPRLFFALERIGMKQIGVCLSSCPSGYYGTRYPDINKCTKCKADCDTCFNKNFCTKCKSGFYLHLGKCLDNCPEGLEANNHTMECVSIVHCEVSEWNPWSPCTKKGKTCGFKRGTETRVREIIQHPSAKGNLCPPTNETRKCTVQRKKCQKGERGKKGRERKRKKPNKGESKEAIPDSKSLESSKEIPEQRENKQQQKKRKVQDKQKSVSVSTVH
notes: also called rhR-Spondin3; R-Spondin3 (RND systems)
B2: binds [3].
